Results as given in patent US20220062373A1 (published 2022).

T1: Endogenous murine CD206 on M2-polarized bone marrow-derived macrophages (mouse, UniProt Q61830 20-1456)
T1 construct: whole, on cells; also called endogenous CD206 in murine macrophages; CD206 of M2 BMDMs
T1 sequence (looked up): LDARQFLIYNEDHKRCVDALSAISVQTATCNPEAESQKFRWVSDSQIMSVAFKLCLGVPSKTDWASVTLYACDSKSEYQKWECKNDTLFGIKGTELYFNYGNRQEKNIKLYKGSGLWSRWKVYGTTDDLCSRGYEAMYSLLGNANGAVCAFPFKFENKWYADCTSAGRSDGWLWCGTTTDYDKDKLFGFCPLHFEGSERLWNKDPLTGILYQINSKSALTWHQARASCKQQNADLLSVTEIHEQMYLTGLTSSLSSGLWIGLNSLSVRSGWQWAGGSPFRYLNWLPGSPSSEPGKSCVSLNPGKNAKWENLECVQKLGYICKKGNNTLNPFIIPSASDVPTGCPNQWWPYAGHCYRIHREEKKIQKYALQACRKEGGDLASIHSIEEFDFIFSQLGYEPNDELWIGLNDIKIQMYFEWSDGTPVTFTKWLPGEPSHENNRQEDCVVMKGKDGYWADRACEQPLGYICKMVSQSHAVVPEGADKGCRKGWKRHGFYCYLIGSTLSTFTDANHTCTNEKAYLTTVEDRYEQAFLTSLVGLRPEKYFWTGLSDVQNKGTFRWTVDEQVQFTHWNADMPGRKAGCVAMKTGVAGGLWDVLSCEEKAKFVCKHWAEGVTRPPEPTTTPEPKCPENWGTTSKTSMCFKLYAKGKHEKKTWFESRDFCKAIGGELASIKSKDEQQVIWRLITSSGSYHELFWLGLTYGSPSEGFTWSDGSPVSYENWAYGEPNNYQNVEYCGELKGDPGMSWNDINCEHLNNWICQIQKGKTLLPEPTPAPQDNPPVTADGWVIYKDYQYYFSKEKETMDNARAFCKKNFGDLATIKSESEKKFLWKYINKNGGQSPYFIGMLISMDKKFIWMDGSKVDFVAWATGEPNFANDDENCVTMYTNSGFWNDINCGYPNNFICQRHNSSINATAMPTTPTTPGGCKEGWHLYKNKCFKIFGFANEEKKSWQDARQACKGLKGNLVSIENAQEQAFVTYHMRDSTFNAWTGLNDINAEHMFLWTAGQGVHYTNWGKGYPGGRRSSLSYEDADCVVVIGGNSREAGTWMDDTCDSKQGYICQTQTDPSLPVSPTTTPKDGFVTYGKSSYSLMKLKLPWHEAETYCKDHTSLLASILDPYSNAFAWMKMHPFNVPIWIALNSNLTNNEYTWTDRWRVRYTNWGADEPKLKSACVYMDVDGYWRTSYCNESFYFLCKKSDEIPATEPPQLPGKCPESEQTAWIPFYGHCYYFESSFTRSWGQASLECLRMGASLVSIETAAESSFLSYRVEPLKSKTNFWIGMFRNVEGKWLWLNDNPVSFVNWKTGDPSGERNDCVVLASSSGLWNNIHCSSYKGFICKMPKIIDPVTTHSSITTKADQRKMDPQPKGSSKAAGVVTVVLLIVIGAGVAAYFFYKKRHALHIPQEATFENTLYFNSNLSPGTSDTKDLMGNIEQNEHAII

B1: Recombinant human CD206 (MRC1/CD206) (receptor, UniProt P22897 19-1383, looked up)
chain: LLDTRQFLIYNEDHKRCVDAVSPSAVQTAACNQDAESQKFRWVSESQIMSVAFKLCLGVPSKTDWVAITLYACDSKSEFQKWECKNDTLLGIKGEDLFFNYGNRQEKNIMLYKGSGLWSRWKIYGTTDNLCSRGYEAMYTLLGNANGATCAFPFKFENKWYADCTSAGRSDGWLWCGTTTDYDTDKLFGYCPLKFEGSESLWNKDPLTSVSYQINSKSALTWHQARKSCQQQNAELLSITEIHEQTYLTGLTSSLTSGLWIGLNSLSFNSGWQWSDRSPFRYLNWLPGSPSAEPGKSCVSLNPGKNAKWENLECVQKLGYICKKGNTTLNSFVIPSESDVPTHCPSQWWPYAGHCYKIHRDEKKIQRDALTTCRKEGGDLTSIHTIEELDFIISQLGYEPNDELWIGLNDIKIQMYFEWSDGTPVTFTKWLRGEPSHENNRQEDCVVMKGKDGYWADRGCEWPLGYICKMKSRSQGPEIVEVEKGCRKGWKKHHFYCYMIGHTLSTFAEANQTCNNENAYLTTIEDRYEQAFLTSFVGLRPEKYFWTGLSDIQTKGTFQWTIEEEVRFTHWNSDMPGRKPGCVAMRTGIAGGLWDVLKCDEKAKFVCKHWAEGVTHPPKPTTTPEPKCPEDWGASSRTSLCFKLYAKGKHEKKTWFESRDFCRALGGDLASINNKEEQQTIWRLITASGSYHKLFWLGLTYGSPSEGFTWSDGSPVSYENWAYGEPNNYQNVEYCGELKGDPTMSWNDINCEHLNNWICQIQKGQTPKPEPTPAPQDNPPVTEDGWVIYKDYQYYFSKEKETMDNARAFCKRNFGDLVSIQSESEKKFLWKYVNRNDAQSAYFIGLLISLDKKFAWMDGSKVDYVSWATGEPNFANEDENCVTMYSNSGFWNDINCGYPNAFICQRHNSSINATTVMPTMPSVPSGCKEGWNFYSNKCFKIFGFMEEERKNWQEARKACIGFGGNLVSIQNEKEQAFLTYHMKDSTFSAWTGLNDVNSEHTFLWTDGRGVHYTNWGKGYPGGRRSSLSYEDADCVVIIGGASNEAGKWMDDTCDSKRGYICQTRSDPSLTNPPATIQTDGFVKYGKSSYSLMRQKFQWHEAETYCKLHNSLIASILDPYSNAFAWLQMETSNERVWIALNSNLTDNQYTWTDKWRVRYTNWAADEPKLKSACVYLDLDGYWKTAHCNESFYFLCKRSDEIPATEPPQLPGRCPESDHTAWIPFHGHCYYIESSYTRNWGQASLECLRMGSSLVSIESAAESSFLSYRVEPLKSKTNFWIGLFRNVEGTWLWINNSPVSFVNWNTGDPSGERNDCVALHASSGFWSNIHCSSYKGYICKRPKIIDAKPTHELLTTKADTRKMDPSK
notes: Bought protein; also called recombinant MRC1/CD206; rMRC1/CD206

Columns and labels:
[1] = target: the molecule itself; assay: small-angle X-ray scattering (SAXS), self-association
Protocol: SAXS data was collected at the 12ID-B beamline of the Advanced Photon Source (APS), Argonne National Laboratory, Lemont, Ill. […] Concentration series measurements for CD206 in buffer containing 50 mM Hepes, 100 mM NaCl, 1 mM DTT were carried out to extrapolate the data to infinite dilution for removing the scattering contribution due to interparticle interactions (concentration effect). Thirty 2D-image frames were recorded for sample solution and their matching buffer using a flow cell, with the exposure time of 0.75-1 sec to minimize radiation damage and to yield optimal signal-to-noise ratio. The 2D images were reduced to 1D scattering profiles and averaged using the Matlab software package at the beamlines.
The buffer background subtraction and intensity extrapolation to infinite dilution were carried out using MatLab script developed by 12-ID-B beamline. The radius of gyration (Rg) was generated from Guinier plot in the range of qRg<1.3. For comparison, Rg was also calculated in real and reciprocal spaces using program GNOM (https://www.embl-hamburg.de/biosaxs/manuals/gnom.html). The pair-distance distribution function P(r) and maximum dimension (Dmax) were also calculated using GNOM. […] Based on the silico models of CD206 monomer derived from iTASSER, the fit of dimer of CD206 to SAXS experimental data were calculated using the program CORAL.

[2] = target: T1, Endogenous murine CD206 on M2-polarized …; assay: cellular thermal shift assay (CETSA) on M2-polarized macrophages
Protocol: The target engagement of the peptides in macrophages was assessed using the cellular thermal shift assay (CETSA) following the Jafari et al. protocol with minor modifications. […] After treatment, cells were collected by centrifugation for 5 min at 300×g and re-suspended in 600 μL DMEM. […] Samples were centrifuged at 20,000×g for 20 min at 4° C., and the supernatant was subsequently analyzed by western blot using 12-230 kDa Peggy Sue separation module (ProteinSimple, Cat #, SM-S001) and Peggy Sue instrument (Protein Simple) with following settings: electrophoresis 250 volts for 45 min; blocking, 23 min; primary antibody, 30 min; secondary antibody, 30 min. Quantitative analysis of CD206 level was performed using anti-CD206 antibody at 1:70 concentration multiplexed with anti-SOD1 antibody at 1:300 dilution, as internal control for normalization, and Compass software (ProteinSimple, San Jose, Calif.).

[3] = target: B1; assay: microscale thermophoresis, label-free, recombinant CD206
Protocol: Specifically, two-fold serial dilutions of the peptides were prepared in PBS and incubated with the same volume of 250 nM recombinant human and mouse CD206 in PBS. After a 5 min incubation at room temperature (RT), measurements were carried out in standard capillaries using a Monolith NT. Labelfree instrument (Nanotemper Technologies) with 40% LED excitation power, 40% IR-laser power, and laser on and off times of 30 s and 5 s, respectively. KD values were calculated by fitting the T-Jump signal of the thermograph using MOAffinity analysis software (Nanotemper Technologies).

binding result [2]	Kd [3]	Binder	binding result [1]
–	–	B1	binds
no binding (tested: 100 µM)	85 µM	KARKAAKRAF (Designed as a control to test the impact of hydrophobicity on activity) [RP-426]	–
